# Patent US20260207767A1 (ANAVEON, published 2026)
# Positions count from the first letter of the chain named. In names and notes the source's numbering stands.
# B1: z2-XVT458 (antibody, IgG1, V domains shown)
# VH: QVQLVQSGAEVKKPGASVKVSCKASGYTFTNFYIHWVRQAPGQGLEWMGSIYPNYGDTAYNQKFKDRVTMTVDTSTSTAYMELRSLRSDDTAVYYCARGYSYAMDYWGQGTTVTVSS
# VL: DIQMTQSPSSVSASVGDRVTITCSASQGISGDLNWYQQKPGKAPKLLIYHTSSLHSGVPSRFSGSGSGTDFTLTISSLQPEDFATYYCQYYSKDLLTFGGGTKLEIK
# notes: full hIgG1; also called XVT458-z2; GH + T071V
# B2: XVT458-z2-m6 (antibody, V domains shown)
# VH: B1 VH with D57I
# VL: B1 VL with S53Q, G57D, Y90G
# notes: IgG format; also called z2_XVT458m6
# B3: 20H02 (antibody, V domains shown)
# VH: EVLLVESGGGLVQPGGSLRLSCAASGFTFSSYSMNWVRQAPGKGLEWVSFISSSSPTLYYADSVKGRFTISRDNAKNSLYLQMNSLRDEDTAVYYCARQGLTPFDYWGQGTLVTVSS
# VL: EIVMTQSPATLSVFPGERATLSCRASQSVSSYLAWYQQKPGQAPRLLIYGASTRATGIPARVSGSGSGTEFILTISSLQSEDFAVYYCQQYNNWPYTFGQGTKLEIK
# notes: used with CH1,2,3 and corresponding CL
# B4: 40B20 (antibody, V domains shown)
# VH: EVQLVESGGGLVQPGGSLRLSCAASGFTFSSYSMNWVRQAPGKGLQWVSYITSSSNTMYYADSVKGRFTISRDNAKNSLYLQMNSLRDEDTAVYYCASIVGAPFDYWGQGTLVTVSS
# VL: B3 VL with F14S, Y32S, V62F, I72T, V85A, Y96F, Q100P, L104V, E105D
# notes: as for B3
# B5: 39F23 (antibody, V domains shown)
# VH: QVQLVESGGGVGQPGRSLRLSCAASGFTFSNYGMHWVRQAPGKGLEWVAVIWYDGSKKYYADSVKGRFTISRDNSKNTLYLQMNSLRVEDTAVYYCVGNSGHWGQGTLVTVSS
# VL: DIVMTQTPLSLPVTPGEPASISCRSSQSLLDSDDGNTYLDWYLQKPGQSPQLLIYTLSYRASGVPDRFSGSGSGTDFTLKISRVEAEDVGVYYCMQCIEFPHTFGGGTKVEIK
# notes: as for B3
# B6: 21A08 (antibody, V domains shown)
# VH: EVQLLESGGGLVQPGGSLRLSCAASGFTFSINAMTWVRQAPGKGLEWVSTISGSGFSTYYADSLKGRFTISRDNSKNTLYLQMNSLRAEDTAVYYCAKEVYGDYWGQGTLVTVSS
# VL: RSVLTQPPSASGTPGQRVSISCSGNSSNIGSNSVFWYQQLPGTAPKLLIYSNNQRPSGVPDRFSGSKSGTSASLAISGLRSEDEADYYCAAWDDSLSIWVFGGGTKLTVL
# notes: used with CH1,2,3 and CL(lambda); also called clone 21A08
# B7: 22F13 (antibody, V domains shown)
# VH: B6 VH with N32S, F56G, A61S, L64V, M83I, E89D
# VL: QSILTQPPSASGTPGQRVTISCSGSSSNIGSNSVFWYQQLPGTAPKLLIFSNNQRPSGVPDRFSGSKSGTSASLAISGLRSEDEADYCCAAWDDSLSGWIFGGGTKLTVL
# notes: as for B3
# B8: 25I20 (antibody, V domains shown)
# VH: B6 VH with G10N, I31T, N32Y, T35S, S54T, F56Y, Y60F, L64V, Y80F
# VL: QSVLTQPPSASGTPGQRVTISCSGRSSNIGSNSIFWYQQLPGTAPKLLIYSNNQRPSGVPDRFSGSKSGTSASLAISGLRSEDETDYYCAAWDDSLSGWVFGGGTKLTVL
# notes: used with CH1,2,3 and corresponding CL; also called 25120
# B9: 56H02 (antibody, V domains shown)
# VH: QVQLVQSGAEVKKPGASVKVSCKASGYTFTSYFMHWVRQAPGQGLEWMGLINPDGGNTDYAQKFQGRVTMTRDTSTSTVYMELSSLRSEDTAVYYCARDGNYYDSSGYYYPDAFDIWGQGTMVTVSS
# VL: SSELTQDPAVSVALGQTVRITCQGDSLRRFYASWYQQKPGQAPVIVIYGKDNRPSGTPDRFSGSTSGNTASLTITGAQAEDEADYYCNSRDSSGTHVVFGGGTKLTVL
# notes: as for B3
# Target: T1, cynoPD-1 His (AcroBiosystems PD1-C5223) (cynomolgus monkey, UniProt B0LAJ3 25-170)
# T1 construct: also called cPD-1; cynomolgus PD-1 His-tagged
# Assay: SPR, Ab captured, PD-1 analyte
# Description: (§1) Anti-human Fc IgG (Jackson) was immobilized on amine reactive CM5 chips (GE Healthcare) using 1×HBS-EP+ running buffer (GE Healthcare). The test antibodies were captured at flow rate 10 μl/min with 30 s contact time. […] Regeneration was carried out with 10 mM Glycine-HCl, pH 1.5 at flow rate 10 μL/min. This protocol is to be used, unless stated otherwise, in determination of Kd wherever used to define the KD of antibodies specified herein, with adaptions where necessary with regard to the nature of the interaction partners.
# T1 sequence (B0LAJ3 entry or part of it limits assumed): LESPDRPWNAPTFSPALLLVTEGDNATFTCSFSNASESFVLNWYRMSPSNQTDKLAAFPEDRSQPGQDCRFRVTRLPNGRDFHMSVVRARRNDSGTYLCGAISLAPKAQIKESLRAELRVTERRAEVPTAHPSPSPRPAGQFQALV
Kd [nM],koff [s⁻¹],kon [M⁻¹ s⁻¹],Binder
54.2,0.0031,57200,B1

# Target: T2, hPD-1 Avi-Tag Biotin (AcroBiosystems PD1-H82E4) (human, UniProt Q15116 25-167, biotin on Avi-Tag)
# T2 construct: bought; also called human PD-1
# Assay: SPR, Ab captured, PD-1 analyte
# Description: as §1
# T2 sequence (Q15116 25-167 limits assumed): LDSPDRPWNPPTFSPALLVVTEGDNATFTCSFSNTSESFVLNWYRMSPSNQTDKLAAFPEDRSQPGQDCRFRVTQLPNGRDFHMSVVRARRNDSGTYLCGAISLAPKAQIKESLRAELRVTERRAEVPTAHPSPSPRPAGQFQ
Kd [nM],koff [s⁻¹],kon [M⁻¹ s⁻¹],Binder
14,0.00127,90700,B1

# Target: T3, recombinant cynoPD-1 (construct not stated) (cynomolgus monkey, UniProt B0LAJ3 25-170)
# T3 construct: not shown: probably His as elsewhere
# Assay: ELISA
EC50 [nM],Max OD [OD],Binder
0.4,3.32,B1
0.071,3.69,B2

# Target: T4, recombinant hPD-1 (construct not stated) (human, UniProt Q15116 25-167, limits assumed)
# T4 construct: also called huPD-1; Human PD1
# Assay: ELISA
# T4 sequence (Q15116 25-167 limits assumed): as above
EC50 [nM],Max OD [OD],Binder
0.71,2.91,B1
0.064,3.49,B2

# Target: T1, cynoPD-1 His (AcroBiosystems PD1-C5223)
# Assay: BLI (legend: SPR), Ab on sensor
Kd [nM],koff [s⁻¹],kon [M⁻¹ s⁻¹],Binder
6.39,0.000463,72500,B3
7.51,0.000505,67300,B4
1.3,0.000294,227000,B5
1.24,8.25e-05,66700,B6
8.45,0.000838,99200,B7
8.38,0.000783,93400,B8
0.262,3.67e-05,140000,B9

# Target: T5, hPD-1 His-tagged (human, UniProt Q15116 25-167)
# T5 construct: also called recombinant hPD-1 (AcroBio)
# Assay: BLI (legend: SPR), Ab on sensor
# T5 sequence (Q15116 25-167 limits assumed): as above
Kd [nM],koff [s⁻¹],kon [M⁻¹ s⁻¹],Binder
2.43,0.000221,90900,B3
9.61,0.000773,80500,B4
1.03,0.000253,244000,B5
0.00927,6.39e-07,69000,B6
1.41,0.000132,94000,B7
1.15,0.000101,87500,B8
0.228,3.79e-05,166000,B9

# Target: T6, cynomolgus PD-1 expressed on cells (cynomolgus monkey, UniProt B0LAJ3 25-288)
# T6 construct: also called CHO-S Cyno-PD-1; 293:cyPD1
# Assay: flow cytometry, HEK293 cyPD1
# T6 sequence (B0LAJ3 entry or part of it limits assumed): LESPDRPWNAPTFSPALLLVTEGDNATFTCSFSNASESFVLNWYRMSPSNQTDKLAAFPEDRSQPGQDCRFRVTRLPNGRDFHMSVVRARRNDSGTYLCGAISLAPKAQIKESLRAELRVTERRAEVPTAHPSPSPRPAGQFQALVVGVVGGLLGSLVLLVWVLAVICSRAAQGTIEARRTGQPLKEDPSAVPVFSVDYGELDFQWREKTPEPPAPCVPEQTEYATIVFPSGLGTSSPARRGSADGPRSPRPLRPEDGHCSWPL
row,EC50 [nM],Binder
1,0.231,B3
2,0.0958,B4
3,0.0289,B5
4,0.195,B6
5,0.107,B7
6,0.31,B8
7,0.0881,B9

# Target: T4, recombinant hPD-1 (construct not stated)
# Assay: BLI, supernatants
# Source text: In order to remove an N-glycosylation site present in the CDR-L1, mutations were inserted in the CDR-L1 of 21A08. The first asparagine ([…], N) in CDR-L1, was replaced by a serine (Ser, S), Glutamine (Gln, Q), or Alanine (Ala, A).
Kd [nM],koff [s⁻¹],Binder
2.17,0.00014,B6

# Target: T7, human PD-1 expressed on cells (human, UniProt Q15116 25-288)
# T7 construct: whole, on cells; cell line named under assay; also called CHO-S hPD-1; Raji PD-1
# Assay: flow cytometry, CHO-S hPD-1
# Description: CHO-S hPD-1 cells were incubated with a 5-fold serial dilution of the indicated humanized antibodies. Antibody binding was detected with goat anti-human IgG-PE. MFI were plotted over the antibody concentration to obtain EC50 values.
# T7 sequence (Q15116 25-288): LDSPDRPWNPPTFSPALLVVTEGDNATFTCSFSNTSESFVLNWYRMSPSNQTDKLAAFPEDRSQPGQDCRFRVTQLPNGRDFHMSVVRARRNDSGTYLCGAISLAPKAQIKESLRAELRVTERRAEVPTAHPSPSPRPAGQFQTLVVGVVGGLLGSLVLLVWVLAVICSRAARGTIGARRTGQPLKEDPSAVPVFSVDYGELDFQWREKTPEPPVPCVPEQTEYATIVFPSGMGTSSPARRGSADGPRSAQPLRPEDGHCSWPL
EC50 [nM],Top MFI [MFI],Binder
4.15,45500,B1

# Target: T7, human PD-1 expressed on cells
# Assay: flow cytometry, HEK293 huPD1
row,EC50 [nM],Binder
1,0.503,B3
2,0.162,B4
3,0.0189,B5
4,0.243,B6
5,0.2,B7
6,0.179,B8
7,0.0921,B9

# Target: T2, hPD-1 Avi-Tag Biotin (AcroBiosystems …)
# Assay: SPR, Ab captured, PD-1 analyte
# Remark: another data set of the same source
# Description: as §1, with “partners. […]” for “partners.”
Kd [nM],koff [s⁻¹],kon [M⁻¹ s⁻¹],Binder
12.5,0.00124,99200,B1
0.439,0.000101,231000,B2

# Target: T6, cynomolgus PD-1 expressed on cells
# Assay: flow cytometry, CHO-S Cyno-PD-1
row,Max MFI [MFI],Binder
1,109,B1
2,59,B2

# Target: T7, human PD-1 expressed on cells
# Assay: flow cytometry, CHO-S hPD-1
# Remark: another data set of the same source
EC50 [nM],Max MFI [MFI],Binder
5.86,40700,B1
1.56,39500,B2

# Target: T1, cynoPD-1 His (AcroBiosystems PD1-C5223)
# Assay: SPR; second ka column, taken as cynoPD-1
# Description: as §1
# Every position in the antibody VH and VL-CDRs was mutated by PCR using a mutagenic primer containing a degenerate codon NNS at a specific CDR position, introducing a combination of all 20 amino acids. The library of single mutants was screened by scFv capture ELISA using a redundancy factor of 4 (on 96-well plate er position). Clones displaying ≥2× ELISA signal compared to the wild-type scFv were sequenced, and clones with unique sequences were re-grown, re-screened by capture ELISA and ranked by dose-dependent ELISA on human and cyno antigens, and by FACS using human antigen expressing cells. Affinity improving mutations were used to design a combinatorial library using the Kunkel method. The library was screened by scFv capture ELISA using the redundancy factor of 4 (4× number of combinations). Clones displaying ≥2× ELISA signal compared to the wild-type scFv were sequenced, and clones with unique sequences were re-grown, re-screened by capture ELISA and ranked by dose-dependent ELISA on human and cyno antigens, and by FACS using human antigen expressing cells.
row,kon [M⁻¹ s⁻¹],Binder
1,73000,B1
2,213000,B2
